According to US20250034601A1 (PURDUE RESEARCH FOUNDATION, published 2025):

T1: cEYFP-PhBSβ (PhBSβ tagged at its N-terminus with the C-terminal half of EYFP) (Petunia hybrida)
T1 construct: BiFC construct, transiently expressed in Nicotiana benthamiana leaves; not shown: C-terminal half of enhanced yellow fluorescent protein (cEYFP) of plasmid pCNHP-cYFP-C
T1 chain: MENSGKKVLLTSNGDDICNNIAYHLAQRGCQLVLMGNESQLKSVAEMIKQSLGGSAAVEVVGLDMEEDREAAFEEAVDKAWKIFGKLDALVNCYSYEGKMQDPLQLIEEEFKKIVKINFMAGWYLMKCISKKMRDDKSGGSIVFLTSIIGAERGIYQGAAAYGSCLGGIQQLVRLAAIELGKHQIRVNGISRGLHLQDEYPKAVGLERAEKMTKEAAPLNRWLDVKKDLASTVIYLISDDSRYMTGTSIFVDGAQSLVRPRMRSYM

B1: MBP-tagged PhBSβ (beta subunit of Petunia hybrida benzaldehyde synthase) (enzyme, not shown: large carriers)
chain: MENSGKKVLLTSNGDDICNNIAYHLAQRGCQLVLMGNESQLKSVAEMIKQSLGGSAAVEVVGLDMEEDREAAFEEAVDKAWKIFGKLDALVNCYSYEGKMQDPLQLIEEEFKKIVKINFMAGWYLMKCISKKMRDDKSGGSIVFLTSIIGAERGIYQGAAAYGSCLGGIQQLVRLAAIELGKHQIRVNGISRGLHLQDEYPKAVGLERAEKMTKEAAPLNRWLDVKKDLASTVIYLISDDSRYMTGTSIFVDGAQSLVRPRMRSYM
notes: Purified recombinant subunit from E. coli (pMAL-c5X, amylose resin); also called PtBSβ
B2: MBP-tagged AtBSβ (beta subunit of Arabidopsis thaliana benzaldehyde synthase) (enzyme, not shown: large carriers)
chain: MENPAKRVLMTSNGDEVSRNIAFHLAKHGCKLVMMGNEGSLRSIVDKIRDSIEGAFPADVIALDMESDSEVAFHAAVQKAWELSGHFDAFLNSYTYQGKVQDILQVSQDEFHRITKINLTAPWFLLKAVATRMKDHGSGGSIVFMATIASGERALYPGADAYASTSAAIHQLVRASAMSLGKHKIRVNMISRGLHLDDEYTASVGRDRAQKLVKDAAPLGQWLNPDTDLYSTVIYLISDGSRFMTGTTVLVDGAQSLTRPRLKSYM
notes: Purified recombinant subunit from E. coli; CDS amplified from flower cDNA (gene AT3G01980)
B3: nEYFP-PhBSα (PhBSα tagged at its N-terminus with the N-terminal half of EYFP) (other)
chain: MEKQTQARFLEPWRDLKGKVVMVTGASSGIGLDLCLDLAKAGCKIIAAARRVDRLKSLCNQINAAADDDDDNNRAVAVELDVSANGDAIEAAVKEAWGAFGRIDALVNNAGVRGTVHSPLELTEEECHNTFRTNLTGTWLVSKYVCKFMRDAKQGGSVINISSIAGLNRGQLPGGLAYVSSKGAVNMVTKVMALELGVDKIRVNSISPGLFKSEITQGLIQKEWLNNVAMRTIPLRTHGNSADPALTSVVRYLIHDSSEYVSGNLFIVDAGATLPGVPIFSSL
notes: BiFC construct, transiently expressed in Nicotiana benthamiana leaves; not shown: N-terminal half of enhanced yellow fluorescent protein (nEYFP) of plasmid pCNHP-nEYFP-C
B4: MBP-PhBSα (maltose binding protein-tagged alpha subunit of Petunia hybrida benzaldehyde synthase) (enzyme, not shown: large carriers)
chain: MEKQTQARFLEPWRDLKGKVVMVTGASSGIGLDLCLDLAKAGCKIIAAARRVDRLKSLCNQINAAADDDDDNNRAVAVELDVSANGDAIEAAVKEAWGAFGRIDALVNNAGVRGTVHSPLELTEEECHNTFRTNLTGTWLVSKYVCKFMRDAKQGGSVINISSIAGLNRGQLPGGLAYVSSKGAVNMVTKVMALELGVDKIRVNSISPGLFKSEITQGLIQKEWLNNVAMRTIPLRTHGNSADPALTSVVRYLIHDSSEYVSGNLFIVDAGATLPGVPIFSSL
notes: Coding region amplified from petunia petal cDNA, expressed in E. coli from pMAL-c5X, purified on amylose resin; also called MBP-tagged α-subunit; MBP-PbBSα

Legend:
[1] = biological target: the molecule itself; assay: size exclusion chromatography (Superdex 200 Increase 10/300 GL), about 1 mg/mL; self-association
Experimental: (§1) 500 μL purified protein (˜ 500 μg) were loaded onto a Superdex 200 Increase 10/300 GL size exclusion column and eluted with PBS. The column was calibrated with the following markers: bovine thyroglobulin (670 kDa), bovine gamma globulin (158 kDa), chicken ovalbumin (44 kDa), horse myoglobulin (17 kDa), and vitamin B-12 (1.4 kDa).

[2] = biological target: B4; assay: size exclusion chromatography (Superdex 200 Increase 10/300 GL), about 1 mg/mL
Experimental: as §1

[3] = biological target: T1, cEYFP-PhBSβ (PhBSβ tagged at its …); assay: bimolecular fluorescence complementation (BiFC) in Nicotiana benthamiana leaves, confocal microscopy
Experimental: The resulting constructs were used for transient expression in N. benthamiana leaves.
Transformation of constructs into A. tumefaciens and infiltration of cell cultures in tobacco leaves were performed as described above except that the final OD₆₀₀ of the culture was adjusted to 0.6. […] 48 hours after infiltration, the fluorescent signals in the leaves were imaged using a Zeiss LSM-880 laser-scanning confocal microscope (Zeiss, Thornwood, NY, USA).

Binder	binding result [1]	binding result [2]	binding result [3]
B1	binds	–	–
B2	binds	binds	–
B3	–	–	binds
B4	binds	–	–
